The record followed here is US20240116985A1 (published 2024).

By EC50 is commonly meant the concentration at which the effect is half-maximal. High values mean weaker potency, low ones greater potency.

Starred links: 1 amine or outer side, 2 acyl side, 3 side chain; linkers in the order of their positions; H or OH if unused. Positions of bridges follow the written chain, without caps; N, C: chain ends. Non-standard residues stand in square brackets, D forms with d. Primed or numbered codes have the meaning given here. PyrS2″ = (S)-3-amino-1-((pent-4-en-1-yloxy)carbonyl)pyrrolidine-3-carboxylic acid (stapling residue), C=CCCCOC(=O)N1CC[C@@](N[*:1])(C(=O)[*:2])C1; B5(16) = 2-amino-2-(pent-4-en-1-yl)hept-6-enoic acid = 2,2-bis(4-pentenyl)glycine (stitching residue), C=CCCCC(CCCC=C)(N[*:1])C(=O)[*:2]; B5(4) = 2,2-bis(4-pentenyl)glycine = 2-amino-2-(pent-4-en-1-yl)hept-6-enoic acid (stitching residue), C=CCCCC(CCCC=C)(N[*:1])C(=O)[*:2]; B5(5) = 2,2-bis(4-pentenyl)glycine, 2-amino-2-(pent-4-en-1-yl)hept-6-enoic acid (stitching residue), C=CCCCC(CCCC=C)(N[*:1])C(=O)[*:2]; (2COOH4NH2Ph)Dap = (S)-5-amino-2-((2-amino-2-carboxyethyl)amino)benzoic acid, Nc1ccc(NC[C@H](N[*:1])C(=O)[*:2])c(C(=O)[*:3])c1; B5(9) = 2-amino-2-(pent-4-en-1-yl)hept-6-enoic acid (2,2-bis(4-pentenyl)glycine), C=CCCCC(CCCC=C)(N[*:1])C(=O)[*:2]; B5(19) = 2-amino-2-(pent-4-en-1-yl)hept-6-enoic acid (bis(4-pentenyl)glycine), C=CCCCC(CCCC=C)(N[*:1])C(=O)[*:2]; Phe(3-COOH) = N[C@@H](Cc1cccc(C(=O)O)c1)C(=O)O; d(βAsp) = O=C(O)[C@@H](CC(=O)[*:2])N[*:1]; βAsp = O=C(O)[C@H](CC(=O)[*:2])N[*:1]; Bta = N[C@@H](Cc1csc2ccccc12)C(=O)O; αAllylPro = C=CC[C@@]1(C(=O)O)CCCN1; tBuAla = CC(C)(C)C[C@H](N)C(=O)O; 3Thi = N[C@@H](Cc1ccsc1)C(=O)O; S8 = C=CCCCCCC[C@](C)(N)C(=O)O

Sequences and labels used below:
T1: full-length beta-Catenin (Uniprot ID P35222) (Homo sapiens (Human), UniProt P35222 2-781)
T1 construct: 'mature' is the nearest allowed form; also called bCat; B-Catenin
T1 sequence: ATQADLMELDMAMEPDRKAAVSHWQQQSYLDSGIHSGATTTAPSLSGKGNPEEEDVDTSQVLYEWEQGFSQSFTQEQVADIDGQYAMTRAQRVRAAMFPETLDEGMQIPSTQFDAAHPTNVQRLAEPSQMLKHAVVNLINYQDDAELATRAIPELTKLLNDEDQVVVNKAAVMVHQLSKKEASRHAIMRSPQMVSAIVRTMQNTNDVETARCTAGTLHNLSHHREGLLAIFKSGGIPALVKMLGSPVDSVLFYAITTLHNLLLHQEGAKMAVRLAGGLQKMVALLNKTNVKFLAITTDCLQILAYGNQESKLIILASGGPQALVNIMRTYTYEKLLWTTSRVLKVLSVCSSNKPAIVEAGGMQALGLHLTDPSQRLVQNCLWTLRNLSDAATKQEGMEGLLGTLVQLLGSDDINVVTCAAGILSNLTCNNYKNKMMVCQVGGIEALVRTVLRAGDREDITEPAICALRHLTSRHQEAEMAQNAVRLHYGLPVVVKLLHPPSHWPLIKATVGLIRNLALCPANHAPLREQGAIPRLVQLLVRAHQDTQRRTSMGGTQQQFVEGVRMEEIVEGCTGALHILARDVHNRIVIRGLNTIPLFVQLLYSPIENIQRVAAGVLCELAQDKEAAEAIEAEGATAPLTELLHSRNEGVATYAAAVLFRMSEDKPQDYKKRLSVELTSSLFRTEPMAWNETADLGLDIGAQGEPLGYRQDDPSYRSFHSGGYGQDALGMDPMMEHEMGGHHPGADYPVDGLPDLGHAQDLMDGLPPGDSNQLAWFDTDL

T2: Bcat-Halo (UniProt P35222 1-781)
T2 sequence (looked up): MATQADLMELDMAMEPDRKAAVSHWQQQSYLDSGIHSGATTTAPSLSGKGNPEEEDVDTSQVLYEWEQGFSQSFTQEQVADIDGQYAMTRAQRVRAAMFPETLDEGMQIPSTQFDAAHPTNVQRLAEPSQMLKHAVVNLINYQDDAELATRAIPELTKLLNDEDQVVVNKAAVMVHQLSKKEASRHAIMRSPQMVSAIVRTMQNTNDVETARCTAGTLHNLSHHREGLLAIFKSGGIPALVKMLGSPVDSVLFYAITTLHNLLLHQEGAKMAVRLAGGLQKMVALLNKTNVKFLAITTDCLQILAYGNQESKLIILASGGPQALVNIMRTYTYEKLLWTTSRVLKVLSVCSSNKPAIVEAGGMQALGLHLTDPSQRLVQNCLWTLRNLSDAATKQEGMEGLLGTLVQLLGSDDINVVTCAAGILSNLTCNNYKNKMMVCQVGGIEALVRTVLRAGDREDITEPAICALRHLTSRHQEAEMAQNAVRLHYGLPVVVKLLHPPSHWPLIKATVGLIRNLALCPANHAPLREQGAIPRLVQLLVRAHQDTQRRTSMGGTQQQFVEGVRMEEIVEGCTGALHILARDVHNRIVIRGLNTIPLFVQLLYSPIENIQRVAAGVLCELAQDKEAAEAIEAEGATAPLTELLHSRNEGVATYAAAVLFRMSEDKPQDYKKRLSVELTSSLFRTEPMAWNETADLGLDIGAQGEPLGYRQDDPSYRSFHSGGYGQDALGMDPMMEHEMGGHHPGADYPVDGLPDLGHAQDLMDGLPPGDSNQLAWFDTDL

B1: I-674 (peptide)
peptide: Ac-[αAllylPro]DI[B5(5)][d(βAsp)]EAAFQ[S8]F[Bta]Q-NH2
modifications: staple 1-4, 4-11
notes: Stapled peptide composition
B2: I-652 (peptide)
peptide: Ac-[αAllylPro]DI[B5(16)]DESAFQ[S8]F[Bta]Q-NH2
modifications: staple 1-4, 4-11
notes: Stapled peptide composition; later-eluting HPLC peak (staple isomer)
B3: I-664 (peptide)
peptide: Ac-[αAllylPro]DI[B5(9)]DEAWFQ[S8]F[Bta]Q-NH2
modifications: staple 1-4, 4-11
notes: Stapled peptide composition; earlier-eluting HPLC peak (staple isomer)
B4: I-662 (peptide)
peptide: XDIXDEASFQXFXQ
modifications: not fully specified; As printed: Ac-PL3-Asp-Ile-B5-Asp-Glu-Ala-Ser-Phe-Gln-S8-Phe-BztA-Gln-NH2; N-terminal Ac; PL3 at 1, B5 at 4, S8 at 11 (stapled 1-4 and 4-11); BztA at 13; C-terminal NH2
notes: as for B2
B5: I-655 (peptide)
peptide: Ac-[αAllylPro]DI[B5(16)]DEWAFQ[S8]F[Bta]Q-NH2
modifications: staple 1-4, 4-11
notes: Stapled peptide composition
B6: I-663 (peptide)
peptide: Ac-[αAllylPro]DI[B5(19)]DEAQFQ[S8]F[Bta]Q-NH2
modifications: staple 1-4, 4-11
notes: Stapled peptide composition
B7: I-665 (peptide)
peptide: Ac-[αAllylPro]DI[B5(9)]DEAWFQ[S8]F[Bta]Q-NH2
modifications: staple 1-4, 4-11
notes: as for B2
B8: I-661 (peptide)
peptide: XDIXDEASFQXFXQ
modifications: not fully specified; As printed: Ac-PL3-Asp-Ile-B5-Asp-Glu-Ala-Ser-Phe-Gln-S8-Phe-BztA-Gln-NH2; N-terminal Ac; PL3 at 1, B5 at 4, S8 at 11 (stapled 1-4 and 4-11); BztA at 13; C-terminal NH2
notes: as for B3
B9: I-659 (peptide)
peptide: XDIXDEALFQXFXQ
modifications: not fully specified; As printed: Ac-PL3-Asp-Ile-B5-Asp-Glu-Ala-Leu-Phe-Gln-S8-Phe-BztA-Gln-NH2; N-terminal Ac; PL3 at 1, B5 at 4, S8 at 11 (stapled 1-4 and 4-11); BztA at 13; C-terminal NH2
notes: as for B2
B10: I-660 (peptide)
peptide: Ac-[αAllylPro]DI[B5(19)]DEAFFQ[S8]F[Bta]Q-NH2
modifications: staple 1-4, 4-11
notes: Stapled peptide composition
B11: I-658 (peptide)
peptide: XDIXDEALFQXFXQ
modifications: not fully specified; As printed: Ac-PL3-Asp-Ile-B5-Asp-Glu-Ala-Leu-Phe-Gln-S8-Phe-BztA-Gln-NH2; N-terminal Ac; PL3 at 1, B5 at 4, S8 at 11 (stapled 1-4 and 4-11); BztA at 13; C-terminal NH2
notes: as for B3
B12: I-673 (peptide)
peptide: Ac-[αAllylPro]DI[B5(9)][βAsp]EAAFQ[S8]F[Bta]Q-NH2
modifications: staple 1-4, 4-11
notes: Stapled peptide composition
B13: I-669 (peptide)
peptide: Ac-[αAllylPro][d(βAsp)]I[B5(9)]DEAAFQ[S8]F[Bta]Q-NH2
modifications: staple 1-4, 4-11
notes: as for B2
B14: I-2088 (peptide)
peptide: Ac-[αAllylPro]D[tBuAla][B5(4)]D[Phe(3-COOH)]AAFL[PyrS2″][3Thi][Bta][dQ]-NH2
modifications: staple 1-4, 4-11
B15: I-2087 (peptide)
peptide: Ac-[αAllylPro]D[tBuAla][B5(4)]D[(2COOH4NH2Ph)Dap]AAFL[PyrS2″][3Thi][Bta]Q-NH2
modifications: staple 1-4, 4-11

In one test the target is T1, full-length beta-Catenin (Uniprot ID …). In words: fluorescence polarization competition, full-length beta-catenin with 5FAM-TCF4(10-53) probe as competitor. As to the method: The plate was incubated protected from light for 60 minutes at 20° C. prior to read. Reads were performed on a CLARIOstar plate reader (BMG Labtech) in duplicate, and data were fitted to a 1:1 binding model with hill slope using an in-house script. All provided concentrations are final concentrations.
In general terms: Fluorescence polarisation rises when a labelled molecule tumbles more slowly, as on binding a larger partner.
With B1, the EC50 worked out at 5000 nM.

On to B2, for which a half-maximal effect (EC50) was put at 72 nM.

On to B3, for which a half-maximal response (EC50) required 996 nM.

In turn, B4 displayed an EC50 of 26 nM.

In turn, B5 showed an EC50 of 183 nM.

In turn, B6 yielded an EC50 of 43 nM. Against the preceding molecule, the EC50 is about 4.3-fold lower.

In turn, B7 yielded an EC50 of 923 nM.

Molecule B8 registered an EC50 of 45 nM. Compared with the last molecule, the EC50 is about 21-fold lower.

Regarding B9, it took 430 nM to reach a half-maximal effect (EC50).

B10 gave an EC50 of 544 nM.

With B11, the EC50 is 546 nM.

For B12, a half-maximal effect (EC50) was put at 5000 nM.

As for B13, the EC50 was found to be 451 nM.

For a further test, the target named is T2, Bcat-Halo. In words: cell-based or functional assay.
With B14, the “NanoBRET Abs IC50” value turned out to be 4.4 µM.

With B15, the “NanoBRET Abs IC50” value was 6.5 µM.
